This is an account of results in patent US20260028391A1 (HUMABS BIOMED, published 2026).

B1: MPK9 (antibody, V domains shown)
VH: EVQLVESGGGLVKPGGSLRLSCAASGFTISGYGMSWFRQAPGKGLEWVSSISASSSYIYYADSTKGRFTISRDNGKQSLYLQMNSLRAEDTAVYYCATSPIEPPYFDLWGRGTLVTVSS
VL: QSVLTQPPSVSGAPGQRVTISCTGSSSNIGAGYDVHWYQQLPGKAPKLLIYGNNNRPSGVPDRFSGSNSGASASLAITGLQAEDEADYFCQSYDRRLSGPVFGRGTKLTVL
notes: VH and VL only
B2: MPK73 (antibody, V domains shown)
VH: EVQLVESGGGLVKPGGSLTLSCAASGFSISGYGMNWVRQAPGRGLEWVASISASSTYIYYADSMKGRFTISRDNGKTSLYLQMKSLRAEDTAVYYCARAPIEPPYFDLWGRGTLVTVSS
VL: B1 VL with S26N, Q40H, L48V, T78S, V101I, R104G
notes: VH and VL only
B3: MPK86 (antibody, V domains shown)
VH: EVQLVESGGGLVKPGGSLRLSCAASGFSISGYYMIWIRQAPGRGLEWISDISASSTYTDYADSVKGRFTISRDNGQNTVYLQMNNLRADDTALYYCATEQTPSPGPFDLWGQGTLVTVSS
VL: QSVVTQPPSVSGAPGQRVIISCSGRSSNIGAGYDVHWYQHFPGTSPKLLIYRNTNRPSGVPDRFSASTSATSASLAITGLQADDEADYYCQSYDRNLGGWVFGGGTKLTVL
notes: VH and VL only
B4: MPK92 (antibody, V domains shown)
VH: EVQLVESGGGLVKPGGSLRLSCEASGISLSGYYMIWIRQAPGKGLEWISSISSSSNYIDYADSVRGRFTISRHNGQNTLYLQMNSLRVEDTAVYFCATEQTPSPGPFELWGQGILVTVSS
VL: QSVLTQPPSVSGAPGQRVTIFCTGTTSNIGTGYDVHWYQQFPGTSPKLLIYRNTNRPSGVPDRFSGSRSGSSASLAIAGLQAEDEADYYCQSFDRSVNGWIFGGGTKVTVL
notes: VH and VL only
B5: MPK18 (antibody, V domains shown)
VH: EVQLVESGGGLVKPGGSLRLSCAASGFTISGYYMIWIRQAPGKGLEWISYISGSSSYTNFGASVKGRFTISRDNGQNTVHLQMTNLRADDTALYYCATEQTPSPGPFDLWGQGTLVTVSS
VL: QSVVTQPPSVSGAPGQRVTISCSGTSSNIGAGYDVHWYQQFPGTSPKLLISRNFNRPSGVPARFSGSKSGSSASLAIAGLQAEDEADYYCQSYDRSLGGWVFGGGTKVTVL
notes: VH and VL only
B6: MPK67 (antibody, V domains shown)
VH: B5 VH with F60Y
VL: B5 VL with V4L, A82P
notes: VH and VL only
B7: MPK36-v3 (antibody, V domains shown)
VH: EVQLVESGGGLVKPGGSLRLSCAASFTISGYYMIWIRQAPGKGLEWISYISGSSTYTNYADSVKGRFTISRDNGQNTLYLHMTSLRADDTALYYCATEQTPSPGPFDLWGQGTLVTVSS
VL: B5 VL with S2T, S51Y, A62D, R95K, G98D
notes: VH and VL only
B8: MPK30-v1 (antibody, V domains shown)
VH: EVQLVESGGGLVKPGGSLRLSCAASGFTISGYYMIWIRQAPGKGLEWISFISASSSYINYADSVRGRFTISRDNGRSTVYLQMNSLRPEDTAVYYCATEQVPSPGPFDLWGQGTLVTVSS
VL: B5 VL with V4L, S23T, T44R, S51Y, F54T, A62D, G98D, K107T, V108L
notes: VH and VL only
B9: MPK10 (antibody, V domains shown)
VH: EVQLVQSGGGLVKPGGSLRLSCAASGFRFSGYFMIWIRQAPGKGLEWISFISGGSSYTNYADSVKGRFTISRDNVQNTLFLDMNSLRAEDTGVYFCATEQVPTPGPFDLWGQGSLVTVSS
VL: QSVLTQPPSVSGVPGQRVIISCTGSSSNIGAGYDVHWYQQFPGRSPTLLIYRNTNRPSGVPDRFSGFQSGSSASLAITGLQAEDEADYYCQSFDRTLDGWAFGGGTKVTVL
notes: VH and VL only

Substitutions are numbered along the chain they refer to.

The experiment has as its target RSV fusion glycoprotein (RSV-F) (respiratory syncytial virus). Put plainly: SPR; F protein loaded on streptavidin sensors, mAb in solution.
Description: Binding affinity of mAbs for RSV-F protein, MPV-F D280 protein, and MPV-F N280 F variant protein was assessed using surface plasmon resonance (SPR).
For B1, binding was characterised by a dissociation constant (Kd) of 0.04 nM.

In the case of B2, the Kd (in general, the concentration at which binding is half-saturated) amounted to 0.012 nM.

In turn, B3 gave a Kd of 0.001 nM.

B4 gave a dissociation constant (Kd) of 0.098 nM. In turn, B5 registered a Kd of 0.001 nM.

In turn, B6 yielded a Kd of 0.0059 nM.

B7 came in with a Kd of 0.0056 nM. For the molecule B8, binding was put at a Kd of 0.01 nM.

In turn, B9 showed a Kd of 0.012 nM.
